Measured values published in patent US20180171024A1.

Columns and labels:
[1] = target: HLA-A2/WT1-S10 on T2 cells (human); experiment: flow cytometry, peptide-loaded T2 cells (10^-4-10^-5 M)
[2] = target: HLA-A2/WT1-S6 on T2 cells (human); experiment: as above
[3] = target: HLA-A2/WT1-S22 on T2 cells (human); experiment: as above
[4] = target: HLA-A2/WT1-S13 on T2 cells (human); experiment: as above
[5] = target: HLA-A2/WT1-S11 on T2 cells (human); experiment: as above
[6] = target: HLA-A2/WT1-S16 on T2 cells (human); experiment: as above
[7] = target: HLA-A2/WT1-S7 on T2 cells (human); experiment: as above
[8] = target: HLA-A2/Gag on T2 cells (human); experiment: flow cytometry, T2 cells loaded with GAG peptide
[9] = target: HLA-A2/TyrD-S4 on T2 cells (human); experiment: flow cytometry, T2 cells loaded with TyrD S4 [..], 10 µg/ml
[10] = target: HLA-A2 on HLA-A2+/WT1+ SET2 cells (WT1 mRNA positive; WT1 126-134 peptide not detected by mass spectrometry of eluted HLA peptides); experiment: flow cytometry on SET-2 cells (WT1 mRNA +)
[11] = target: HLA-A2 on cells (tumor cell lines, normal primary cells, PBMCs) (human); experiment: flow cytometry, renal epithelial cells 4100-2, 10 µg/ml
[12] = target: HLA-A2/KPNA1 on T2 cells (human); experiment: flow cytometry, T2 cells loaded with KPNA1 [..], 10 µg/ml
[13] = target: HLA-A2/MART1(26) on T2 cells (human); experiment: flow cytometry, T2 cells loaded with MART1 peptide
[14] = target: HLA-A2 on cells (tumor cell lines, normal primary cells, PBMCs) (human); experiment: flow cytometry, A498 cells, 10 µg/ml
[15] = target: HLA-A2/ARHGAP on T2 cells (human); experiment: flow cytometry, T2 cells loaded with ARHGAP peptide
[16] = target: HLA-A2/209M on T2 cells (human); experiment: flow cytometry, T2 cells loaded with 209M peptide
[17] = target: HLA-A2 on cells (tumor cell lines, normal primary cells, PBMCs) (human); experiment: flow cytometry, 624.38 melanoma cells, 10 µg/ml
[18] = target: HLA-A2 on HLA-A2+ cells that do not express WT1 (tumor cell lines, normal primary cells); experiment: flow cytometry on 501A melanoma cells (WT1 mRNA -)
[19] = target: HLA-A2/154 on T2 cells (human); experiment: flow cytometry, T2 cells loaded with 154 peptide
[20] = target: HLA-A2 on cells (tumor cell lines, normal primary cells, PBMCs) (human); experiment: flow cytometry, SET-2 cells, 10 µg/ml
[21] = target: HLA-A2/TyrD-S17 on T2 cells (human); experiment: flow cytometry, T2 cells loaded with TyrD-S17 [..], 10 µg/ml
[22] = target: HLA-A2/TyrD-S9 on T2 cells (human); experiment: flow cytometry, T2 cells loaded with TyrD S9 [..], 10 µg/ml
[23] = target: HLA-A2 on cells (tumor cell lines, normal primary cells, PBMCs) (human); experiment: flow cytometry, SW620 cells
[24] = target: HLA-A2/TyrD-S1 on T2 cells (human); experiment: flow cytometry, T2 cells loaded with TyrD S1 [..], 10 µg/ml
[25] = target: HLA-A2 on cells (tumor cell lines, normal primary cells, PBMCs) (human); experiment: flow cytometry, CCRF-SB cells, 10 µg/ml
[26] = target: HLA-A2/KIAA0355 on T2 cells (human); experiment: flow cytometry, T2 cells loaded with KIAA0335 [..], 10 µg/ml
[27] = target: HLA-A2 on HLA-A2+ cells that do not express WT1 (tumor cell lines, normal primary cells); experiment: flow cytometry on A498 cells (WT1 mRNA -)
[28] = target: HLA-A2/TyrD-S3 on T2 cells (human); experiment: flow cytometry, T2 cells loaded with TyrD S3 [..], 10 µg/ml
[29] = target: HLA-A2 on cells (tumor cell lines, normal primary cells, PBMCs) (human); experiment: flow cytometry, WM-115 melanoma cells
[30] = target: HLA-A2 on cells (tumor cell lines, normal primary cells, PBMCs) (human); experiment: flow cytometry, WM-115 melanoma cells, 10 µg/ml
[31] = target: HLA-A2/MAGE-A9 223-231 complex on T2 cells (human); experiment: flow cytometry, T2 cells loaded with 10^-4 M peptide
[32] = target: HLA-A2/MAGE-A4 230-239 complex on cells (human); experiment: as above
[33] = target: HLA-A2/PAP 112-120 complex on T2 cells (human); experiment: as above
[34] = target: HLA-A2 on cells (tumor cell lines, normal primary cells, PBMCs) (human); experiment: flow cytometry, ST486 cells, 10 µg/ml
[35] = target: HLA-A2/TyrD-S10 on T2 cells (human); experiment: flow cytometry, T2 cells loaded with TyrD S10 [..], 10 µg/ml
[36] = target: HLA-A2 on cells (tumor cell lines, normal primary cells, PBMCs) (human); experiment: flow cytometry, SK-Mel-5 melanoma cells, 10 µg/ml
[37] = target: HLA-A2 on cells (tumor cell lines, normal primary cells, PBMCs) (human); experiment: flow cytometry, astrocytes 1800, 10 µg/ml
[38] = target: HLA-A2 on cells (tumor cell lines, normal primary cells, PBMCs) (human); experiment: flow cytometry, SKMEL5 cells
[39] = target: HLA-A2 on cells (tumor cell lines, normal primary cells, PBMCs) (human); experiment: flow cytometry, 501A cells

## BB7.2 (antibody)
[1]
  MFI: 450
[2]
  MFI: 500
[3]
  MFI: 376
[4]
  MFI: 296
[5]
  MFI: 449
[6]
  MFI: 379
[7]
  MFI: 592
[8]
  MFI: 1840
[9]
  MFI relative to background: 543
[10]
  MFI: 890
[11]
  MFI: 564
[12]
  MFI relative to background: 729
[13]
  MFI: 2500
[14]
  MFI: 170
[15]
  MFI: 2580
[16]
  MFI: 2870
[17]
  MFI: 311
[18]
  MFI: 229
[19]
  MFI: 1920
[20]
  MFI: 274
[21]
  MFI relative to background: 444
[22]
  MFI relative to background: 768
[23]
  GeoMean: 369
[24]
  MFI relative to background: 596
[25]
  MFI: 902
[26]
  MFI relative to background: 714
[27]
  MFI: 350
[28]
  MFI relative to background: 430
[29]
  MFI: 127
[30]
  MFI: 215
[31]
  MFI: 486
[32]
  MFI: 492
[33]
  MFI: 540
[34]
  MFI: 681
[35]
  MFI relative to background: 620
[36]
  MFI: 118
[37]
  MFI: 590
[38]
  GeoMean: 281
[39]
  GeoMean: 1290
